Assay results reported in patent US20160075790A1 (Bristol-Myers Squibb, published 2016).
Residue numbers refer to the chain shown, from its start. Several values for one entry are separate records, joined by “and”; a condition that tells them apart may be missing. Equal entries are not always repeated.

T1: human isoleucine zipper-CD40L (IZ-hCD40L) (human, UniProt P29965 113-261)
T1 sequence: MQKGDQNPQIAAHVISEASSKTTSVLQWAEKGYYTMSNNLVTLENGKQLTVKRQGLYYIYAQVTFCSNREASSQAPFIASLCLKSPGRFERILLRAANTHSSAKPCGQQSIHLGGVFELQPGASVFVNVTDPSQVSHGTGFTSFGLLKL

B1: BMS2h-765 (other)
VH: EVQLLESGGGLVQPGGSLRLSCAASGFTFSAYTMEWVRQAPGKGLEWVSSIGVTGYDTYYADSVKGRFTISRDNSKNTLYLQMNSLRAEDTAVYYCAKGGQGFDYWGQGTLVTVSS
B2: BMS2h-757 (other)
VH: EVQLLESGGGLVQPGGSLRLSCAASGFTFKEYNMAWVRQAPGKGLEWVSSINFAGRTTYYADSVKGRFTISRDNSKNTLYLQMNSLRAEDTAVYYCAKLSLPLDIFSFDYWGQGTLVTVSS
B3: BMS2h-752 (other)
VH: EVQLLESGGGLVQPGGSLRLSCAASGFTFSDYAMAWVRQAPGKGLEWVSRIGVEGGDTYYADSVKGRFTISRDNSKNTLYLQMNSLRAEDTAVYYCAKLLRLYRLGFDYWGQGTLVTVSS
B4: BMS2h-775 (other)
VH: EVQLLESGGGLVQPGGSLRLSCAASGFTFPNYGMLWVRQAPGKGLEWVSSINSSGMETYYADSVKGRFTISRDNSKNTLYLQMNSLRAEDTAVYYCAKFFRLNDHNSVFGFDYWGQGTLVTVSS
B5: BMS2h-774 (other)
VH: EVQLLESGGGLVQPGGSLRLSCAASGFTFREYDMGWVRQAPGKGLEWVSLISPPGRTTYYADSVKGRFTISRDNSKNTLYLQMNSLRAEDTAVYYCAKVVILGYTNRFDYWGQGTLVTVSS
B6: BMS2h-758 (other)
VH: EVQLLESGGGLVQPGGSLRLSCAASGFTFGDYGMNWVRQAPGKGLEWVSHISSNGRFTYYADSVKGRFTISRDNSKNTLYLQMNSLRAEDTAVYYCAETSGYFDYWGQGTLVTVSS
B7: BMS2h-758-5 (other)
VH: B6 VH with T28A, D104E
B8: BMS2h-758-3 (other)
VH: B6 VH with G101S, D104E
B9: BMS2h-758-2 (other)
VH: B6 VH with D104E
B10: BMS2h-758-1 (other)
VH: B6 VH with T78M, Q82R, F103Y, D104E
B11: BMS2h-758-4 (other)
VH: B6 VH with Y80F, F103Y, D104E, Q108H
B12: BMS2h-747 (other)
VH: EVQLLESGGGLVQPGGSLRLSCAASGFTFDDGTMGWARQAPGKGLEWVSLILPSGSRTYYADSVKGRFTISRDNSKNTLYLQMNSLRAEDTAVYYCAKHSLTNRPFDYWGQGTLVTVSS
B13: BMS2h-766 (other)
VH: EVQLLESGGGLVQPGGSLRLSCAASGFTFGDYGMSWVRQAPGKGLEWVSYIDPLGRLTYYADSVKGRFTISRDNSKNTLYLQMNSLRAEDTAVYYCAEDLSSLQYGVSPNFDYWGQGTLVTVSS
B14: BMS2h-783 (other)
VH: EVQLLESGGGLVQPGGSLRLSCAASGFTFRDYDMGWVRQAPGKGLEWVSTISPLGHFTYYADSVKGRFTISRDNSKNTLYLQMNSLRAEDTAVYYCAKSGFHEYTEGFDYWGQGTLVTVSS
B15: BMS2h-494-3 (other)
VL: DIQMTQSPSSLSASVGDRVTITCRASQSIDEDLEWYQQKPGKAPRLLIYSSSWLQSGVPSRFSGSGSGTDFTLTISSLQPEDFATYFCQQYFQYPPTFGQGTKVEIKR
B16: BMS2h-785 (other)
VL: DIQMTQSPSSLSASVGDRVTITCRASQPIYGWLNWYQQKPGKAPKLLIYLTSGLQSGVPSRFSGSGSGTDFTLTISSLQPEDFATYYCQQIHSSPFTFGQGTKVEIKR
B17: BMS2h-492 (other)
VL: DIQMTQSPSSLSASVGDRVTITCRASQAIELNLEWYQQKPGKAPKLLIYDASMLQSGVPSRFSGSGSGTDFTLTISSLQPEDFATYYCQQYDVYPPTFGQGTKVEIKR
B18: BMS2h-492-6 (other)
VL: B17 VL with L31S
B19: BMS2h-492-7 (other)
VL: B17 VL with L31H, V93A
B20: BMS2h-492-5 (other)
VL: B17 VL with T5N, T20S, L31H, V93A
B21: BMS2h-494-2 (other)
VL: B15 VL with D30E, F87Y, Q100H
B22: BMS2h-494 (other)
VL: B15 VL with F87Y
B23: BMS2h-754 (other)
VH: EVQLLESGGGLVQPGGSLRLSCAASGFTFSRYDMVWVRQAPGKGLEWVSRINSMGLATYYADSVKGRFTISRDNSKNTLYLQMNSLRAEDTAVYYCAKDYSVAPHGYPLGFDYWGQGTLVTVSS
B24: BMS2h-781 (other)
VH: EVQLLESGGGLVQPGGSLRLSCAASGFTFTDYTMYWVRQAPGKGLEWVSKISPSGRSTYYADSVKGRFTISRDNSKNTLYLQMNSLRAEDTAVYYCAKDPFGFDYWGQGTLVTVSS
B25: BMS2h-782 (other)
VH: EVQLLESGGGLVQPGGSLRLSCAASGFTFDDAEMFWVRQAPGKGLEWVSSIDARGLTTYYADPVKGRFTISRDNSKNTLYLQMNSLRAEDTAVYYCAEATSAMYPFDYWGQGTLVTVSS
B26: BMS2h-780 (other)
VH: EVQLLESGGGLVQPGGSLRLSCAASGFTFGSYTMMWVRQAPGKGLEWVSEIDRTGERTYYADSVKGRFTISRDNSKNTLYLQMNSLRAEDTAVYYCAEPGFASLPFDYWGQGTLVTVSS
B27: BMS2h-437 (other)
VL: DIQMTQSPSSLSASVGDRVTITCRASTPIGTMLDWYQQKPGKAPKLLIGHSSWLQSGVPSRFSGSGSGTDFTLTISSLQPEDFATYYCGQHVRPPATFGQGTKVEIKR
B28: BMS2h-784 (other)
VH: EVQLLESGGGLVQPGGSLRLSCAASGFTFDRAGMGWVRQAPGKGLEWVSLIGRGGDITYYADSVKGRFTISRDNSKNTLYLQMNSLRAEDTAVYYCAKIRNLHWDVGRQFDYWGQGTLVTVSS

The binders below were run against T1, human isoleucine zipper-CD40L … (assay: cell-based or functional assay).

Row | hIZCD40L-driven Human B Cell Proliferation EC50 | Binder
1 | > 7 µM | B1
2 | 6.4 µM | B2
3 | > 7 µM | B3
4 | > 7 µM | B4
5 | > 7 µM | B5
6 | 5.9 µM | B6
7 | > 7 µM | B7
8 | > 7 µM | B8
9 | > 7 µM | B9
10 | > 7 µM | B10
11 | > 7 µM | B11
12 | > 7 µM | B12
13 | > 7 µM | B13
14 | > 2 µM | B14
15 | > 7 µM | B15
16 | 3.7 µM and > 7 µM | B16
17 | > 7 µM | B17
18 | 6.3 µM | B18
19 | 1.9 µM | B19
20 | 2.3 µM | B20
21 | 4.8 µM | B21
22 | 6.1 µM | B22
23 | 6.6 µM | B23
24 | > 7 µM | B24
25 | > 7 µM | B25
26 | > 7 µM | B26
27 | 5.7 µM | B27
28 | > 4.7 µM | B28
